Experiment [1] deals with msarp1. Nature of the experiment: msarp1 expression in serum deprived exponentially growing 10T1/2 cells (Northern hybridization). Type of experiment: cell-based, mouse. The settings on record: cells grown in serum free media supplemented with TPA. As to the method:
Isolated DNA fragments were labeled with [^32P]dCTP (3000 Ci/mmol, Amersham) in a random priming reaction according to Feinberg and Vogelstein, (1982), supra. Hybridization was carried out according to the standard protocol described in Sambrook et al. (1989), supra. The membranes were washed two times with 2×SSC at room temperature for 30 minutes. Following two additional washes at 56° C. in 0.1×SSC, 0.1% SDS, the membranes were autoradiographed onto a Kodak X-Omat® films.
Since it has previously been shown that media conditioned with exponentially growing 10T1/2 cells also prevents apoptosis, we also analyzed msarp1 expression in serum deprived exponentially growing cells. RNA was isolated at different time points after removal of serum.

In experiment [2] the test system is C3H/10T1/2 cells. Nature of the experiment: Apoptosis of exponentially proliferating or quiescent 10T1/2 cells (adherent / non-adherent cell count). Type of experiment: cell-based, mouse. The settings on record: for apoptosis / cell death: quiescent 10T1/2 cells arrested in G0. As to the method: C3H/10T1/2 cells were grown in Eagle's basal medium (BME) supplemented with 10% heat-inactivated fetal bovine serum (FBS) at 37° C. in a humidified 5% CO2 atmosphere without antibiotics. Cells were plated at 2×10^3 cells/mL and fed every 3–4 days. Approximately 2 weeks after the initial seeding, the cells were completely quiescent and few if any mitotic cells were present. To analyze the effect of serum deprivation or cycloheximide treatment, the exponentially proliferating (approximately 75% confluent) or quiescent cultures were transferred to serum-free medium or medium supplemented with 10 μg/mL cycloheximide. At 24 hours, the apoptotic (i.e. non-adherent) cells and the non-apoptotic (i.e. adherent) cells were collected separately and their amounts were evaluated using a cell counter (Coulter Counter® ZM). Serum free conditioned medium was obtained after 24 hour incubation of quiescent 10T1/2 cells in BME. The RNA was isolated by the guanidine-isothiocyanate method described in Chomezinski and Sacchi (1987) Anal. Biochem., 162:156–59. 20 μg samples of total RNA were subjected to electrophoresis in a 1.2% agarose formaldehyde gel. Sambrook et al. (eds) (1989).

The subject of experiment [3] is MCF7 breast carcinoma cells. Nature of the experiment: Viability / apoptosis of MCF7 cells transfected with hsarp2 in pcDNA3. Type of experiment: cell-based, human. On the procedure: The NotI/XbaI fragment of hsarp2 was inserted into the NotI/XbaI sites of the mammalian expression vector pcDNA3 (Invitrogen). MCF7 breast carcinoma cells were transfected with this construct using LipofectAMINE reagent (Gibco BRL) according to manufacturer's protocol. The percentage of living cells was estimated by counting the relative amount of adherent cells using a Coulter Counter® (NZ). […] The cells were also treated with hTNF (50 ng/ml) and adriamycin (1 μg/ml). The results obtained are depicted in FIG. 6.

The subject of experiment [4] is MCF7 breast adenocarcinoma cell line. Nature of the experiment: Sensitivity of stably transfected MCF7 cells to cytotoxic stimuli. Format: cell-based, human. An excerpt:
The MCF7 breast adenocarcinoma cell line was chosen as a model to study the involvement of SARP proteins in the processes of apoptosis. The programmed cell death of these cells induced by different agents has been well characterized. Zyed et al. (1994) Cancer Res. 54:825–831. […] MCF7 cells were stably transfected with a pcDNA3 mammalian expression vector bearing full length msarp1 or hsarp2. The transfectants expressing msarp1 and hsarp2 were selected by Northern hybridization. […] Hannun and Obeid (1995) T. Biochem. Sci. 20:73–7; and Kolesnick and Fuks (1995) J. Exp. Med. 181:1949–52.
(§1) Transfection of MCF7. MCF7 cells were transfected with the pcDNA3 mammalian expression vector (Invitrogen), containing either no insert, msarp1, or hsarp2 cDNAs, using LipofectAMINE reagent (Gibco) according to manufacturer's protocol. Stable transfectants and two-three weeks later single cell originated clones were selected with 1 mg/ml G418 and expression of the respective genes was confirmed by Northern hybridization.

Experiment [5] concerns β-catenin. Nature of the experiment: Intracellular β-catenin in MCF7 transfectants (Western immunoblot, immunohistochemistry). The following applies: for intracellular concentration of β-catenin: Western immunoblot, MCF7 transfectants vs pcDNA3 control. Format: cell-based, human. On the procedure: To determine whether SARPs interfered with Wnt-frizzled protein interaction, the expression of β-catenin in MCF7-transfectants was compared. The experiment was performed as follows. Cell Cultures. MCF7 human breast adenocarcinoma cells were plated at 2×10^5 cells/ml and cultured in Modified Eagle Medium (MEM) supplemented with 10% FBS. Serum free conditioned medium was obtained after 24 hour incubation of quiescent MCF7 cells in MEM.
as §1
Immunohistochemistry. Paraformaldehyde-fixed transfected MCF7 cells grown on 4-well Lab-Tek® chamber slides were probed by anti-β-catenin monoclonal IgG (Transduction Laboratories). Staining was performed by avidin-biotin-peroxydase system (Vector Laboratories) using diaminobenzidine as a substrate. IgG isolated from preimmune serum was used as a negative control.
Western Immunoblot. For Western analysis the samples of conditioned media were concentrated using CENTRIPREP®-10 concentrators (AMICON). Cells were harvested in extraction buffer consisting of 20 mM tris-HCl (pH 7.8), 5 mM MgCl2, 250 mM sucrose, 1% NP40. After 1 hour incubation on ice extracts were clarified by centrifugation. Protein concentrations of the cellular extracts were determined using DC Protein Assay kit (Bio Rad). Equal amount of proteins were subjected to SDS/PAGE (Sambrook, J., et al. (1989) Molecular Cloning: A Laboratory Manual (Second ed.) (CSHL Press), transferred onto nitrocellulose membranes, and probed with the anti-GST-mSARP1 polyclonal affinity purified IgG (1 μg/mL) or anti-β-catenin monoclonal IgG (Transduction Laboratories).
Background: A western blot detects proteins with antibodies after separation by electrophoresis.

Numbered stars: 1 amine (or outer) side, 2 acyl side, 3 side chain; on linkers, the order of the positions; unused ones are H or OH. Bridge positions count the residues as written; N and C are the ends. Square brackets hold non-standard residues; d marks the D form. Peptide text beside a SMILES is read from it. I, II: the chains in the order shown. Actinocin(9to1) = Cc1c2oc3c(C)ccc(C(=O)[*:1])c3nc-2c(C(=O)[*:2])c(N)c1=O; NMeV = CN[C@H](C(=O)O)C(C)C; Sar = CNCC(=O)O

Consider `CCCCCCCCCCCCCC(=O)O[C@@H]1[C@@H](C)[C@@]2(O)[C@@H](C=C(CO)C[C@]3(O)C(=O)C(C)=C[C@@H]23)[C@H]2C(C)(C)[C@]12OC(C)=O` [TPA], for which, in experiment [1], the “induction of msarp1 message” value was “No induction of msarp1”.
For the molecule `Cc1c2oc3c(C)ccc(C(=O)N[C@@H]4C(=O)N[C@H](C(C)C)C(=O)N5CCC[C@H]5C(=O)N(C)CC(=O)N(C)[C@@H](C(C)C)C(=O)O[C@@H]4C)c3nc-2c(C(=O)N[C@@H]2C(=O)N[C@H](C(C)C)C(=O)N3CCC[C@H]3C(=O)N(C)CC(=O)N(C)[C@@H](C(C)C)C(=O)O[C@@H]2C)c(N)c1=O` [actinomycin D] (I: T[dV]P[Sar][NMeV] / II: T[dV]P[Sar][NMeV]; ester I:1-I:C, II:1-II:C; linker I:N-II:N via Actinocin(9to1)), the “apoptosis / cell death” value in experiment [2] is listed as “Apoptosis of G0 is also induced”.
Consider `C[C@@H]1C[C@@H]([C@H](O)CC2CC(=O)NC(=O)C2)C(=O)[C@@H](C)C1` [cycloheximide], for which, in experiment [2] (exponentially proliferating 10T1/2 cells, serum deprivation), the apoptosis result is reported as “apoptosis is delayed”. In addition, the “apoptosis / cell death” value in experiment [2] is recorded as “rapidly induces death”.
In the case of `COc1ccc(C[C@H](N)C(=O)N[C@H]2[C@@H](O)[C@H](n3cnc4c(N(C)C)ncnc43)O[C@@H]2CO)cc1` [puromycin], in experiment [2], the “apoptosis / cell death” value is recorded as “Apoptosis of G0 is also induced”.
As to α-amanitin, the “apoptosis / cell death” value in experiment [2] is “Apoptosis of G0 is also induced”.

B1: hSARP2: human secreted apoptosis related protein of 314 amino acids encoded by hsarp2 cDNA, SEQ ID NO: 18 (protein)
chain: SEYDYVSFQSDIGPYQSGRFYTKPPQCVDIPADLRLCHNVGYKKMVLPNLLEHETMAEVKQQASSWVPLLNKNCHAGTQVFLCSLFAPVCLDRPIYPCRWLCEAVRDSCEPVMQFFGFYWPEMLKCDKFPEGDVCIAMTPPNPTEASKPQGTTVCPPCDNELKSEAIIEHLCASEFALRMKIKEVKKENGDKKIVPKKKKPLKLGPIKKKDLKKLVLYLKNGADCPCHQLDNLSHHFLIMGRKVKSQYLLTAIHKWDKKNKEFKNFMKKMKNHECPTFQSVFK
For the molecule B1, the “percentage of viable cells” value in experiment [3] (MCF7 transfected with pcDNA3-hsarp2, adherent cells counted) is “decrease in the percentage of viable cells”. Also, in experiment [3] (breast carcinoma cell line, increased expression of hsarp2, dose dependent), the programmed cell death entry is recorded as “increase programmed cell death”. For the same molecule, the “percentage of cells undergoing apoptosis in culture” value in experiment [3] (hsarp2 in expression vector transfected into human cell lines) is “increases”. In experiment [4], the “cell sensitivity to apoptosis induced by TNF” value is reported as “sensitized the cells to apoptosis”; the “cell sensitivity to apoptosis induced by ceramide” value was “sensitized the cells to apoptosis”; the “growth rate and cell cycle vs parental cells” value was “not significantly different”. Also, the “intracellular concentration of β-catenin” value in experiment [5] was “decreases the intracellular concentration of β-catenin”.

B2: mSARP1: mouse secreted apoptosis related protein of 295 amino acids encoded by msarp1, SEQ. ID. NO: 2 (protein)
chain: MPRGPASLLLLVLASHCCLGSARGLFLFGQPDFSYKRTNCKPIPANLQLCHGIEYQNMRLPNLLGHETMKEVLEQAGAWIPLVMKQCHPDTKKFLCSLFAPVCLDDLDETIQPCHSLCVQVKDRCAPVMSAFGFPWPDMLECDRFPQDNDLCIPLASSDHLLPATEEAPKVCEACKTKNEDDNDIMETLCKNDFALKIKVKEITYINRDTKIILETKSKTIYKLNGVSERDLKKSVLWLKDSLQCTCEEMNDINAPYLVMGQKQGGELVITSVKRWQKGQREFKRISRSIRKLQC
Regarding B2, in experiment [4], the “cell sensitivity to apoptosis induced by TNF” value is “higher resistance”; the “cell sensitivity to apoptosis induced by ceramide” value is “higher resistance”; the “growth rate and cell cycle vs parental cells” value is “not significantly different”. Moreover, in experiment [5], the “intracellular concentration of β-catenin” value is “not sensitive enough to discern a significant difference”. For the same molecule, the “concentration of β-catenin” value in experiment [5] (immunohistochemistry, MCF7 transfectants) is “higher concentration of β-catenin”.

Values taken from patent US7045604B2, “Family of genes encoding apoptosis-related peptides, peptides encoded thereby and methods of use thereof” (Tanox, Inc., priority 1996, dated 2006).
